Results published in US20260167684A1 (MERIDA BIOSCIENCES, published 2026).

T1: FcγRIIB (human, UniProt P31994 46-217, limits assumed)
T1 construct: Soluble protein used in SPR
T1 sequence (looked up): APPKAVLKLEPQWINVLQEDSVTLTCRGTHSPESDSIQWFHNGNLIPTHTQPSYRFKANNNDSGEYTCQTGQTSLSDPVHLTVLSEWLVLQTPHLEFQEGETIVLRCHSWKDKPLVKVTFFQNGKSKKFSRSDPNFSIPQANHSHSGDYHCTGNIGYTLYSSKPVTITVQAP

T2: FcγRIIA167R (UniProt P12318 36-218)
T2 construct: Soluble protein used in SPR
T2 sequence (looked up): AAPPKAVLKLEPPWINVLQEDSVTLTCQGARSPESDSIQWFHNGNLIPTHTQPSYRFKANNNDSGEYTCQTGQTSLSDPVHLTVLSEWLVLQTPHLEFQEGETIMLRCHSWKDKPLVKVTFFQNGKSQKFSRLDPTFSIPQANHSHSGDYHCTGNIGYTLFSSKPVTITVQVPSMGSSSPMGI

T3: FcγRIIA167H (UniProt P12318 36-218)
T3 construct: Soluble protein used in SPR
T3 sequence (looked up): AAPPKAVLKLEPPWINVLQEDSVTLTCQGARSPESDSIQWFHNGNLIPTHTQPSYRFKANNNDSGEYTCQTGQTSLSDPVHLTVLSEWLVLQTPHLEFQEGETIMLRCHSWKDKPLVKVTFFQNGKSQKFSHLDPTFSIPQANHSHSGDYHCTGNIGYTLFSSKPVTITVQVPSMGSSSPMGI


How the values were obtained:
FcγRIIB = biological target: T1, FcγRIIB; assay: SPR; molecule captured on CM5 chip, FcγR as analyte; steady-state fit
Protocol: (§1) Binding assays using SPR were performed to determine the binding affinity of the exemplary molecules. Molecules were captured on a CM5 SPR chip. Increasing concentrations of FcγR analyte (FcγRIIA167H, FcγRIIA167R or FcγRIIB) were subsequently injected over the captured molecules and a single dissociation performed using single cycle kinetics. The data was then analyzed using steady state analysis which is suitable for low affinity interactions. In particular, a plot of response at equilibrium against the molecule concentration was generated.

FcγRIIA167R = biological target: T2, FcγRIIA167R; assay: as above
Protocol: as §1

FcγRIIA167H [1] = biological target: T3, FcγRIIA167H; assay: SPR, molecule captured on the sensor chip, FcγRIIA167H as analyte
Protocol: as §1

FcγRIIA167H [2] = biological target: T3, FcγRIIA167H; assay: SPR; molecule captured on CM5 chip, FcγR as analyte; steady-state fit
Protocol: as §1

Binder | Kd (FcγRIIB) [nM] | Kd (FcγRIIA167R) [nM] | binding result (FcγRIIA167H [1]) | Kd (FcγRIIA167H [2]) [nM]
Variant G4 (Fc fusion, Knob-in-hole heterodimer; also called TSHR260 2P2R huIgG1 Fc E233D/G237D/P238D/H268D/P271G/A330R) chain 1: MGCSSPPCECHQEEDFRVTCKDIQRIPSLPPSTQTLKLIETHLRTIPSHAFSNLPNISRIYVSIDVTLQQLESHSFYNLSKVTHIEIRNTPNLTYIDPDALKELPLLKFLGIFNTGLKMFPPLTKVYSTDIFFILEITDNPYMTSIPRNAFQGLCNETLTLKLYNNGFTSVQGYAFNGTKLDAVYLNKNKYLTVIDKDAFGGVYSGPSLLDVSQTSVTALPSKGLEHLKELRARNTWTLDKTHTCPPCPAPDLLGDDSVFLFPPKPKDTLMISRTPEVTCVVVDVSDEDGEVKFNWYVDGVEVHNAKTKPREEQYNSTYRVVSVLTVLHQDWLNGKEYKCKVSNKALPRPIEKTISKAKGQPREPQVYTLPPCRDELTKNQVSLWCLVKGFYPSDIAVEWESNGQPENNYKTTPPVLDSDGSFFLYSKLTVDKSRWQQGNVFSCSVMHEALHNHYTQKSLSLSPGK chain 2: DKTHTCPPCPAPDLLGDDSVFLFPPKPKDTLMISRTPEVTCVVVDVSDEDGEVKFNWYVDGVEVHNAKTKPREEQYNSTYRVVSVLTVLHQDWLNGKEYKCKVSNKALPRPIEKTISKAKGQPREPQVCTLPPSRDELTKNQVSLSCAVKGFYPSDIAVEWESNGQPENNYKTTPPVLDSDGSFFLVSKLTVDKSRWQQGNVFSCSVMHEALHNHYTQKSLSLSPGK | 55.6 | 836 | – | –
Variant G6 (Fc fusion, Knob-in-hole heterodimer; also called TSHR260 2P2R huIgG1 Fc L234D/G236N/S267E) chain 1: MGCSSPPCECHQEEDFRVTCKDIQRIPSLPPSTQTLKLIETHLRTIPSHAFSNLPNISRIYVSIDVTLQQLESHSFYNLSKVTHIEIRNTPNLTYIDPDALKELPLLKFLGIFNTGLKMFPPLTKVYSTDIFFILEITDNPYMTSIPRNAFQGLCNETLTLKLYNNGFTSVQGYAFNGTKLDAVYLNKNKYLTVIDKDAFGGVYSGPSLLDVSQTSVTALPSKGLEHLKELRARNTWTLDKTHTCPPCPAPEDLNGPSVFLFPPKPKDTLMISRTPEVTCVVVDVEHEDPEVKFNWYVDGVEVHNAKTKPREEQYNSTYRVVSVLTVLHQDWLNGKEYKCKVSNKALPAPIEKTISKAKGQPREPQVYTLPPCRDELTKNQVSLWCLVKGFYPSDIAVEWESNGQPENNYKTTPPVLDSDGSFFLYSKLTVDKSRWQQGNVFSCSVMHEALHNHYTQKSLSLSPGK chain 2: DKTHTCPPCPAPEDLNGPSVFLFPPKPKDTLMISRTPEVTCVVVDVEHEDPEVKFNWYVDGVEVHNAKTKPREEQYNSTYRVVSVLTVLHQDWLNGKEYKCKVSNKALPAPIEKTISKAKGQPREPQVCTLPPSRDELTKNQVSLSCAVKGFYPSDIAVEWESNGQPENNYKTTPPVLDSDGSFFLVSKLTVDKSRWQQGNVFSCSVMHEALHNHYTQKSLSLSPGK | 335 | – | no binding (tested: about 2.4e-6 M) | –
Variant G12 (Fc fusion, Knob-in-hole heterodimer; also called TSHR260 2P2R huIgG1 Fc G237D/P238D/P271G/A330R) chain 1: MGCSSPPCECHQEEDFRVTCKDIQRIPSLPPSTQTLKLIETHLRTIPSHAFSNLPNISRIYVSIDVTLQQLESHSFYNLSKVTHIEIRNTPNLTYIDPDALKELPLLKFLGIFNTGLKMFPPLTKVYSTDIFFILEITDNPYMTSIPRNAFQGLCNETLTLKLYNNGFTSVQGYAFNGTKLDAVYLNKNKYLTVIDKDAFGGVYSGPSLLDVSQTSVTALPSKGLEHLKELRARNTWTLDKTHTCPPCPAPELLGDDSVFLFPPKPKDTLMISRTPEVTCVVVDVSHEDGEVKFNWYVDGVEVHNAKTKPREEQYNSTYRVVSVLTVLHQDWLNGKEYKCKVSNKALPRPIEKTISKAKGQPREPQVYTLPPCREEMTKNQVSLWCLVKGFYPSDIAVEWESNGQPENNYKTTPPVLDSDGSFFLYSKLTVDKSRWQQGNVFSCSVMHEALHNHYTQKSLSLSPGK chain 2: DKTHTCPPCPAPELLGDDSVFLFPPKPKDTLMISRTPEVTCVVVDVSHEDGEVKFNWYVDGVEVHNAKTKPREEQYNSTYRVVSVLTVLHQDWLNGKEYKCKVSNKALPRPIEKTISKAKGQPREPQVCTLPPSREEMTKNQVSLSCAVKGFYPSDIAVEWESNGQPENNYKTTPPVLDSDGSFFLVSKLTVDKSRWQQGNVFSCSVMHEALHNHYTQKSLSLSPGK | 22.3 | 369 | – | 3810
Variant G2 (Fc fusion, Knob-in-hole heterodimer; also called TSHR260 2P2R huIgG1 Fc E233V/L234D/L235F/G236R/G237D/S239L/S267D/R292Q/H268P/S298G/T299A/A327L/L328A/A330H/E333I) chain 1: MGCSSPPCECHQEEDFRVTCKDIQRIPSLPPSTQTLKLIETHLRTIPSHAFSNLPNISRIYVSIDVTLQQLESHSFYNLSKVTHIEIRNTPNLTYIDPDALKELPLLKFLGIFNTGLKMFPPLTKVYSTDIFFILEITDNPYMTSIPRNAFQGLCNETLTLKLYNNGFTSVQGYAFNGTKLDAVYLNKNKYLTVIDKDAFGGVYSGPSLLDVSQTSVTALPSKGLEHLKELRARNTWTLDKTHTCPPCPAPVDFRDPLVFLFPPKPKDTLMISRTPEVTCVVVDVDPEDPEVKFNWYVDGVEVHNAKTKPQEEQYNGAYRVVSVLTVLHQDWLNGKEYKCKVSNKLAPHPIIKTISKAKGQPREPQVYTLPPCRDELTKNQVSLWCLVKGFYPSDIAVEWESNGQPENNYKTTPPVLDSDGSFFLYSKLTVDKSRWQQGNVFSCSVMHEALHNHYTQKSLSLSPGK chain 2: DKTHTCPPCPAPVDFRDPLVFLFPPKPKDTLMISRTPEVTCVVVDVDPEDPEVKFNWYVDGVEVHNAKTKPQEEQYNGAYRVVSVLTVLHQDWLNGKEYKCKVSNKLAPHPIIKTISKAKGQPREPQVCTLPPSRDELTKNQVSLSCAVKGFYPSDIAVEWESNGQPENNYKTTPPVLDSDGSFFLVSKLTVDKSRWQQGNVFSCSVMHEALHNHYTQKSLSLSPGK | 2610 | – | no binding (tested: about 2.4e-6 M) | –
Variant G1 (Fc fusion, Knob-in-hole heterodimer; also called TSHR260 2P2R huIgG1 Fc E233V/L234D/L235F/G236R/G237D/S239L/S267D/H268P/S298G/T299A/A327L/L328A/A330H/E333I) chain 1: MGCSSPPCECHQEEDFRVTCKDIQRIPSLPPSTQTLKLIETHLRTIPSHAFSNLPNISRIYVSIDVTLQQLESHSFYNLSKVTHIEIRNTPNLTYIDPDALKELPLLKFLGIFNTGLKMFPPLTKVYSTDIFFILEITDNPYMTSIPRNAFQGLCNETLTLKLYNNGFTSVQGYAFNGTKLDAVYLNKNKYLTVIDKDAFGGVYSGPSLLDVSQTSVTALPSKGLEHLKELRARNTWTLDKTHTCPPCPAPVDFRDPLVFLFPPKPKDTLMISRTPEVTCVVVDVDPEDPEVKFNWYVDGVEVHNAKTKPREEQYNGAYRVVSVLTVLHQDWLNGKEYKCKVSNKLAPHPIIKTISKAKGQPREPQVYTLPPCRDELTKNQVSLWCLVKGFYPSDIAVEWESNGQPENNYKTTPPVLDSDGSFFLYSKLTVDKSRWQQGNVFSCSVMHEALHNHYTQKSLSLSPGK chain 2: DKTHTCPPCPAPVDFRDPLVFLFPPKPKDTLMISRTPEVTCVVVDVDPEDPEVKFNWYVDGVEVHNAKTKPREEQYNGAYRVVSVLTVLHQDWLNGKEYKCKVSNKLAPHPIIKTISKAKGQPREPQVCTLPPSRDELTKNQVSLSCAVKGFYPSDIAVEWESNGQPENNYKTTPPVLDSDGSFFLVSKLTVDKSRWQQGNVFSCSVMHEALHNHYTQKSLSLSPGK | 2620 | – | no binding (tested: about 2.4e-6 M) | –
Variant G13 (Fc fusion, Knob-in-hole heterodimer; also called TSHR260 2P2R huIgG1 Fc G237D/P238D/D270E/P271G/A330R) chain 1: MGCSSPPCECHQEEDFRVTCKDIQRIPSLPPSTQTLKLIETHLRTIPSHAFSNLPNISRIYVSIDVTLQQLESHSFYNLSKVTHIEIRNTPNLTYIDPDALKELPLLKFLGIFNTGLKMFPPLTKVYSTDIFFILEITDNPYMTSIPRNAFQGLCNETLTLKLYNNGFTSVQGYAFNGTKLDAVYLNKNKYLTVIDKDAFGGVYSGPSLLDVSQTSVTALPSKGLEHLKELRARNTWTLDKTHTCPPCPAPELLGDDSVFLFPPKPKDTLMISRTPEVTCVVVDVSHEEGEVKFNWYVDGVEVHNAKTKPREEQYNSTYRVVSVLTVLHQDWLNGKEYKCKVSNKALPRPIEKTISKAKGQPREPQVYTLPPCREEMTKNQVSLWCLVKGFYPSDIAVEWESNGQPENNYKTTPPVLDSDGSFFLYSKLTVDKSRWQQGNVFSCSVMHEALHNHYTQKSLSLSPGK chain 2: DKTHTCPPCPAPELLGDDSVFLFPPKPKDTLMISRTPEVTCVVVDVSHEEGEVKFNWYVDGVEVHNAKTKPREEQYNSTYRVVSVLTVLHQDWLNGKEYKCKVSNKALPRPIEKTISKAKGQPREPQVCTLPPSREEMTKNQVSLSCAVKGFYPSDIAVEWESNGQPENNYKTTPPVLDSDGSFFLVSKLTVDKSRWQQGNVFSCSVMHEALHNHYTQKSLSLSPGK | 127 | 1790 | – | –
